In PMC3858272, “Construction and Application of Elastin Like Polypeptide Containing IL-4 Receptor Targeting Peptide” (PLoS ONE, 2013):

Tests used:
[1] = molecular target: T1, IL-4Rα (CD124) (UniProt P24394 26-232); assay: SPR; IL-4Rα immobilised by amine coupling on a carboxymethyl dextran chip (2000±400 RU); AP1 peptide 3.125 to 50 µM, [AP1-V12]6 125 nM to 1 µM, [V14]6 1 µM flowed for 3 min at 25 µL/min; 25°C; kinetic fits with Scrubber 2; conditions: both partners purified
T1 construct: interleukin-4 receptor alpha chain (CD124), recombinant protein bought from Sino Biological; No catalogue number is printed; also called IL-4 receptor; source: bought: Sino Biological
T1 sequence (looked up): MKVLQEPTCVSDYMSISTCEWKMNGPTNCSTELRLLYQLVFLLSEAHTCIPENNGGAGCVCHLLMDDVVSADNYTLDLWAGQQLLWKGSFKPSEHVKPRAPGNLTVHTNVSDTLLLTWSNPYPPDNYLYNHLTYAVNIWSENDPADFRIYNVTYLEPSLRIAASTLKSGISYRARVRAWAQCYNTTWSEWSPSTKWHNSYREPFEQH

[2] = molecular target: T2, IL-4 receptor on H226 and MDA-MB-231 cancer cells (human (endogenous in H226 and …, UniProt P24394 26-825)); assay: flow cytometry on cells; 10 µM Alexa 488-labelled polymer or peptide, 1 h at 4°C, on H226 and MDA-MB-231 cells (IL-4R highly expressed) after blocking with 2% BSA; H460 cells as IL-4R negative control; conditions: one partner purified
T2 construct: interleukin-4 receptor as expressed on the surface of human cancer cell lines; On cells the alpha chain may stand with other receptor chains; source: endogenous, on H226 and MDA-MB-231 cells
T2 sequence (looked up): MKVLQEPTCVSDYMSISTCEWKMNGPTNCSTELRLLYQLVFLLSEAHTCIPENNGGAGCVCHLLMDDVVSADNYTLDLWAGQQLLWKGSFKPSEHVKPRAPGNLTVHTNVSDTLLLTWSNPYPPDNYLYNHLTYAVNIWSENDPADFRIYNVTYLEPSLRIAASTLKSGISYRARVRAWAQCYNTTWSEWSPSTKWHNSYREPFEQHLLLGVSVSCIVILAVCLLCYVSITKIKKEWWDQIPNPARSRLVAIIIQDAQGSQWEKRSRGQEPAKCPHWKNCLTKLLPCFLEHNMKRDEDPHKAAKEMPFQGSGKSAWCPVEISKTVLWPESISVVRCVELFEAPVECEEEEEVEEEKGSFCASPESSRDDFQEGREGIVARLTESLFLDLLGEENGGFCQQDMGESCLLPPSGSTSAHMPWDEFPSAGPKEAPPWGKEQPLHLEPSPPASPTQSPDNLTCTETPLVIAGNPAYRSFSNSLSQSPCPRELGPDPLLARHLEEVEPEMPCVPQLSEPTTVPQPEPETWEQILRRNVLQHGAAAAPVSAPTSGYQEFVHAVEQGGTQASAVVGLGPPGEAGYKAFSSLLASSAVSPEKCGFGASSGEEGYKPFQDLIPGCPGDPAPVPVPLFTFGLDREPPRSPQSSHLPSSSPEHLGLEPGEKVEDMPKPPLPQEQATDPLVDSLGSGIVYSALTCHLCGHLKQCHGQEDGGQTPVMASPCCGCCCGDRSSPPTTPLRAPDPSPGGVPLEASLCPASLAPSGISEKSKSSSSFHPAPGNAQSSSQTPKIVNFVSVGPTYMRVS

Row | Binder | koff [1] [s⁻¹] | kon [1] [M⁻¹ s⁻¹] | fold cell attachment, H226 cells over H460 cells [2] [fold] | fold cell attachment, MDA-MB-231 cells over H460 cells [2] [fold]
1 | CRKRLDRN (peptide found earlier by phage display screening, termed AP1; also called free AP1 peptide) [AP1 peptide] | 0.17 | 35 |  | 
2 | [AP1-V12]6 polymer, SGPG[VGRKRLDRNG(VGVPG)12]6WPC (designed binder, The vector's insert begins with an ATG; also called [AP1-V12]6 protein; targeted [AP1-V12]6 polymer; source: E. coli BL21 (DE3), purified (four rounds of inverse transition cycling)) SGPGVGRKRLDRNGVGVPGVGVPGVGVPGVGVPGVGVPGVGVPGVGVPGVGVPGVGVPGVGVPGVGVPGVGVPGVGRKRLDRNGVGVPGVGVPGVGVPGVGVPGVGVPGVGVPGVGVPGVGVPGVGVPGVGVPGVGVPGVGVPGVGRKRLDRNGVGVPGVGVPGVGVPGVGVPGVGVPGVGVPGVGVPGVGVPGVGVPGVGVPGVGVPGVGVPGVGRKRLDRNGVGVPGVGVPGVGVPGVGVPGVGVPGVGVPGVGVPGVGVPGVGVPGVGVPGVGVPGVGVPGVGRKRLDRNGVGVPGVGVPGVGVPGVGVPGVGVPGVGVPGVGVPGVGVPGVGVPGVGVPGVGVPGVGVPGVGRKRLDRNGVGVPGVGVPGVGVPGVGVPGVGVPGVGVPGVGVPGVGVPGVGVPGVGVPGVGVPGVGVPGWPC | 0.00125 | 5810 |  | 
3 | Alexa 488-labeled [AP1-V12]6 (designed binder, Alexa Fluor 488-C5 maleimide on the C-terminal Cys residue, as m1; The labelled form of m1, used on cells (flow cytometry, confocal microscopy); also called Alexa-labeled [AP1-V12]6; targeted [AP1-V12]6 polymer; source: E. coli BL21 (DE3), purified (four rounds of inverse transition cycling), then labelled) SGPGVGRKRLDRNGVGVPGVGVPGVGVPGVGVPGVGVPGVGVPGVGVPGVGVPGVGVPGVGVPGVGVPGVGVPGVGRKRLDRNGVGVPGVGVPGVGVPGVGVPGVGVPGVGVPGVGVPGVGVPGVGVPGVGVPGVGVPGVGVPGVGRKRLDRNGVGVPGVGVPGVGVPGVGVPGVGVPGVGVPGVGVPGVGVPGVGVPGVGVPGVGVPGVGVPGVGRKRLDRNGVGVPGVGVPGVGVPGVGVPGVGVPGVGVPGVGVPGVGVPGVGVPGVGVPGVGVPGVGVPGVGRKRLDRNGVGVPGVGVPGVGVPGVGVPGVGVPGVGVPGVGVPGVGVPGVGVPGVGVPGVGVPGVGVPGVGRKRLDRNGVGVPGVGVPGVGVPGVGVPGVGVPGVGVPGVGVPGVGVPGVGVPGVGVPGVGVPGVGVPGWPC |  |  | 5.9 ± 1.6 | 5.6 ± 1.3
